Laboratory results taken from article PMC6547681, “Structures of BCL-2 in complex with venetoclax reveal the molecular basis of resistance mutations” (Nature Communications, 2019).

Legend:
[1] = molecular target: BAXBH3 peptide; assay: SPR; direct binding; biotinylated BIMBH3 or BAXBH3 peptide immobilised on SA sensor chip, BCL-2 (0-63 nM) as analyte; HBS-EP (10 mM hepes pH 7.4, 150 mM sodium chloride, 3.4 mM EDTA, 0.005% tween 20, optionally 1 mM TCEP for BAXBH3), 25 °C; BIAcore 4000 or S200; 1:1 binding site kinetic model; BIMBH3-4A reference surface
[2] = molecular target: BIMBH3 peptide; assay: as above
[3] = molecular target: venetoclax; assay: steady-state competition SPR; conditions: BIMBH3 peptide immobilised on chip; BCL-2 analyte pre-combined with venetoclax at 0, 20, 40, 60 nM
[4] = molecular target: S55746; assay: steady-state competition SPR; conditions: BIMBH3 peptide immobilised on chip; BCL-2 analyte pre-combined with S55746 at 0, 20, 40, 60 nM

BAXBH3 peptide, sequence (Q07812 other isoform, or with tags, fused parts or gaps): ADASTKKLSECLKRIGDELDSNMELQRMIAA
BIMBH3 peptide, sequence (O43521 141-166): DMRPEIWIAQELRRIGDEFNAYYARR

Row | Kd [1] [nM] | Kd [2] [nM] | Ki [3] [nM] | Ki [4] [nM] | Substance
1 | 3.6 | 0.36 | – | – | BCL-2 E152A (from UniProt P10415 1-239) (natural protein)
2 | 4 | 0.17 | – | – | BCL-2 F104C (from UniProt P10415 1-239) (natural protein)
3 | – | 0.23 | – | – | BCL-2 G101A (from UniProt P10415 1-239) (natural protein)
4 | 5.5 | 0.63 | – | – | BCL-2 G101V/E152A double mutant (from UniProt P10415 1-239) (natural protein)
5 | – | – | 0.027 | – | BCL-2 WT (from UniProt P10415) E152A
6 | – | – | 25.1 | – | BCL-2 WT (from UniProt P10415) F104C
7 | – | – | 0.11 | – | BCL-2 WT (from UniProt P10415) G101A
8 | – | – | – | 36 | BCL-2 WT (from UniProt P10415) G101V
9 | – | – | 0.002 | 5.3 | BCL-2 WT (from UniProt P10415) G101V; E152A
